Reference: patent WO2016071355A1 (dated 2016)
Where a chain is given by its changes, count along the chain named. In names and notes the source's numbering stands. Each block holds one binder with its values, some of them ahead of it.

Columns and labels:
[1] = target: T1, soluble extracellular region of human CD38 fused to a 6-His-tag (human, UniProt P28907 43-300); assay: SPR, antibody captured on protein G, CD38-His injected
T1 construct: also called human CD38 extracellular domain with a poly-histidine tag; human CD38 antigen

human CD38 on cells = human CD38 on cells (human, UniProt P28907 1-300); assay: cell-based or functional assay
Protein G = Protein G (UniProt P19909 303-497); assay: protein G affinity chromatography, SDS-PAGE
Protein A = target: T2, Protein A (Staphylococcus aureus, UniProt P38507 212-269); assay: protein A affinity chromatography
T2 construct: The resin ligand is a commercial recombinant Protein A derivative

[2] = target: T1, soluble extracellular region of human …; assay: SPR
[3] = target: T3, soluble extracellular region of cynomolgus monkey CD38 antigen fused to a 6-His-tag (cynomolgus monkey, UniProt Q5VAN0 45-301); assay: SPR
T3 construct: also called cynomolgus CD38

Kd [1]: 3.6 nM
B1: humanized HB-7 best-fit antibody (antibody, human IgG1, kappa, V domains shown)
VH: QVQLQESGPGLVKPSETLSLTCTVSGFSLISYGVHWVRQPPGKGLEWLGVIWRGGSTDYNAAFMSRLTISKDNSKNQVSLKLSSVTAADTAVYFCAKTLITTGYAMDYWGQGTLVTVSS
VL: DIQLTQSPSSLSASVGDRVTITCRASEDIYNRLAWYQQKPGKAPKLLISGATSLETGVPSRFSGSGSGKDYTLTISSLQPEDFATYYCQQYWSTPTFGQGTKLEIKR
notes: Human IgG1 format

Kd [1]: 3.2 nM
B2: BEAT CD38-HB7bestfit/CD3 antibody (bispecific antibody, human IgG1, kappa, L234A L235A)
heavy: QVQLQESGPGLVKPSETLSLTCTVSGFSLISYGVHWVRQPPGKGLEWLGVIWRGGSTDYNAAFMSRLTISKDNSKNQVSLKLSSVTAADTAVYFCAKTLITTGYAMDYWGQGTLVTVSSASTKGPSVFPLAPSSKSTSGGTAALGCLVKDYFPEPVTVSWNSGALTSGVHTFPAVLQSSGLYSLSSVVTVPSSSLGTQTYICNVNHKPSNTKVDKKVEPKSCDKTHTCPPCPAPEAAGGPSVFLFPPKPKDTLMISRTPEVTCVVVDVSHEDPEVKFNWYVDGVEVHNAKTKPREEQYNSTYRVVSVLTVLHQDWLNGKEYKCKVSNKALPAPIEKTISKAKGQPREPAVYTLPPSRDELTKNQVKLVCLVTGFYPSDIAVEWESNGQPENNYYTTPPVLDSDGSFSLVSWLNVDKSRWQQGNVFSCSVMHEALHNHYTQKSLSLSPGK
light: DIQLTQSPSSLSASVGDRVTITCRASEDIYNRLAWYQQKPGKAPKLLISGATSLETGVPSRFSGSGSGKDYTLTISSLQPEDFATYYCQQYWSTPTFGQGTKLEIKRTVAAPSVFIFPPSDEQLKSGTASVVCLLNNFYPREAKVQWKVDNALQSGNSQESVTEQDSKDSTYSLSSTLTLSKADYEKHKVYACEVTHQGLSSPVTKSFNRGEC
scFv: EVQLVESGGGLVQPGGSLRLSCAASGYTFTRYTMHWVRQAPGKGLEWIGYINPSRGYTYYADSVKGRFTLSTDKSKNTAYLQMSSLRAEDTAVYYCARYYDDHYCLDYWGQGTLVTVSSGGGGSGGGGSGGGGSGGGASDIQLTQSPSSLSASVGDRVTITCRASSSVSYVAWYQQKPGKAPKRWIYDTSKLYSGVPSRFSGSGSGTDYTLTISSLQPEDFATYYCQQWSSNPPTFGQGTKVEIKGGGGTDKTHTCPPCPAPEAAGGPSVFLFPPKPKDTLMISRTPEVTCVVVDVSHEDPEVQFKWYVDGVEVHNAKTKPREEQYNSTFRVVSVLTVLHQDWLNGKEYKCKVSNKALPAPIEKTISKTKGQPREPEVATFPPSREEMTKNQVTLVCLVTGFYPSDIAVEWESSGQPENNYNTDPPLLESDGSFALSSRLRVDKSRWQQGNIFSCSVMHEALHNRFTQKSLSLSPGK
EC50, T cell redirected killing of RPMI 8226 myeloma cells (RDL-FACS, purified T cells, 48h) (human CD38 on cells): 0.0022 nM

B3: BEAT CD38-HB7bestfit/CD3(SP34) antibody (bispecific antibody)
heavy: QVQLQESGPGLVKPSETLSLTCTVSGFSLISYGVHWVRQPPGKGLEWLGVIWRGGSTDYNAAFMSRLTISKDNSKNQVSLKLSSVTAADTAVYFCAKTLITTGYAMDYWGQGTLVTVSSASTKGPSVFPLAPSSKSTSGGTAALGCLVKDYFPEPVTVSWNSGALTSGVHTFPAVLQSSGLYSLSSVVTVPSSSLGTQTYICNVNHKPSNTKVDKKVEPKSCDKTHTCPPCPAPEAAGGPSVFLFPPKPKDTLMISRTPEVTCVVVDVSHEDPEVQFKWYVDGVEVHNAKTKPREEQYNSTFRVVSVLTVLHQDWLNGKEYKCKVSNKALPAPIEKTISKTKGQPREPAVYTLPPSREEMTKNQVKLVCLVTGFYPSDIAVEWESSGQPENNYYTTPPMLDSDGSFSLVSWLNVDKSRWQQGNIFSCSVMHEALHNRFTQKSLSLSPGK
light: B2 light
scFv: not shown
EC50, T cell redirected killing of Daudi cells (RDL-FACS, PBMCs, 24h) (human CD38 on cells): 0.0018 nM

B4: BEAT CD38-9G7Mouse/CD3 (bispecific antibody, human IgG1, kappa, L234A L235A)
heavy: not shown
light: DIVMTQSHKFMSTSVGDRVSISCKASQDVITSVAWFQQKPGQSPKLLIYSASYRYTGVPDRFTGSGSGTDFTFTISSVQAEDLAVYYCQQHYTIPLTFGAGTKLELKRTVAAPSVFIFPPSDEQLKSGTASVVCLLNNFYPREAKVQWKVDNALQSGNSQESVTEQDSKDSTYSLSSTLTLSKADYEKHKVYACEVTHQGLSSPVTKSFNRGEC
scFv: EVQLVESGGGLVQPGGSLRLSCAASGYTFTRYTMHWVRQAPGKGLEWIGYINPSRGYTYYADSVKGRFTLSTDKSKNTAYLQMSSLRAEDTAVYYCARYYDDHYCLDYWGQGTLVTVSSGGGGSGGGGSGGGGSDIQLTQSPSSLSASVGDRVTITCRASSSVSYVAWYQQKPGKAPKRWIYDTSKLYSGVPSRFSGSGSGTDYTLTISSLQPEDFATYYCQQWSSNPPTFGQGTKVEIKGGGGTDKTHTCPPCPAPEAAGGPSVFLFPPKPKDTLMISRTPEVTCVVVDVSHEDPEVQFKWYVDGVEVHNAKTKPREEQYNSTFRVVSVLTVLHQDWLNGKEYKCKVSNKALPAPIEKTISKTKGQPREPEVATFPPSREEMTKNQVTLVCLVTGFYPSDIAVEWESSGQPENNYNTDPPLLESDGSFALSSRLRVDKSRWQQGNIFSCSVMHEALHNRFTQKSLSLSPGK
EC50, killing of Daudi cells (flow cytometry, PBMCs, 48h) (human CD38 on cells): 0.0032 nM

B5: BEAT CD38-OKT10Mouse/CD3 (bispecific antibody, human IgG1, kappa, L234A L235A)
heavy: QVELVESGGSLKLSCAASGFDFSRSWMNWVRQAPGKGLEWIGEINPDSSTINYTTSLKDKFIISRDNAKNTLYLQMTKVRSEDTALYYCARYGNWFPYWGQGTLVTVSSASTKGPSVFPLAPSSKSTSGGTAALGCLVKDYFPEPVTVSWNSGALTSGVHTFPAVLQSSGLYSLSSVVTVPSSSLGTQTYICNVNHKPSNTKVDKKVEPKSCDKTHTCPPCPAPEAAGGPSVFLFPPKPKDTLMISRTPEVTCVVVDVSHEDPEVKFNWYVDGVEVHNAKTKPREEQYNSTYRVVSVLTVLHQDWLNGKEYKCKVSNKALPAPIEKTISKAKGQPREPAVYTLPPSRDELTKNQVKLVCLVTGFYPSDIAVEWESNGQPENNYYTTPPVLDSDGSFSLVSWLNVDKSRWQQGNVFSCSVMHEALHNHYTQKSLSLSPGK
light: DILMTQSQKIMPTSVGDRVSVTCKASQNVDTNVAWYQQKPGQSPKALIYSASYRYSGVPDRFTGSGSGTDFTLTITNVQSEDLAEYFCQQYDSYPLTFGAGTKLDLKRTVAAPSVFIFPPSDEQLKSGTASVVCLLNNFYPREAKVQWKVDNALQSGNSQESVTEQDSKDSTYSLSSTLTLSKADYEKHKVYACEVTHQGLSSPVTKSFNRGE
scFv: B4 scFv
EC50, killing of Daudi cells (flow cytometry, PBMCs, 48h) (human CD38 on cells): 0.126 nM

Kd [1]: 2.5 nM
B6: chimeric HB-7 antibody (antibody, human IgG1, kappa, V domains shown)
VH: KVQLQESGPSLVQPSQRLSITCTVSGFSLISYGVHWVRQSPGKGLEWLGVIWRGGSTDYNAAFMSRLSITKDNSKSQVFFKMNSLQADDTAIYFCAKTLITTGYAMDYWGQGTTVTVSS
VL: DIELTQSPSSFSVSLGDRVTITCKASEDIYNRLAWYQQKPGNAPRLLISGATSLETGVPSRFSGSGSGKDYTLSITSLQTEDVATYYCQQYWSTPTFGGGTKLEIKR

binding result (Protein G): no binding
binding result (Protein A): no binding
B7: BTB homodimer construct lacking the VH3 based scFv (other)
chain: DKTHTCPPCPAPEAAGGPSVFLFPPKPKDTLMISRTPEVTCVVVDVSHEDPEVKFNWYVDGVEVHNAKTKPREEQYNSTYRVVSVLTVLHQDWLNGKEYKCKVSNKALPAPIEKTISKAKGQPREPEVATFPPSRDELTKNQVTLVCLVTGFYPSDIAVEWESNGQPENNYKTDPPLLESQGSFALSSRLRVDKSRWQQGNVFSCSVMHEALHNHYTQKSLSLSPGK

Kd [2]: 1 nM
fold lower binding than the mouse parental antibody [2]: 3 fold
B8: first humanized 9G7 antibody prototype (antibody, human IgG1, kappa, V domains shown)
VH: QVTLKESGPTLVKPTQTLTLTCTFSGLSLSTSGKGVGWIRQPPGKALEWLAHIWWDDDKRYNPALKSRLTITKDTSKNQVVLTMTNMDPVDTATYYCARIELGRSYVMDYWGQGTLVTVSS
VL: DIQMTQSPSSLSASVGDRVTITCQASQDVITSVAWFQQKPGKAPKLLIYSASYRYTGVPSRFSGSGSGTDFTFTISSLQPEDIATYYCQQHYTIPLTFGQGTKLEIKR
notes: Human IgG1 isotype; also called first antibody prototype; first humanized prototype

Kd [1]: 0.4 nM
Kd [3]: 1 nM
B9: humanized 9G7 best-framework antibody (antibody, human IgG1, kappa, V domains shown)
VH: EVQLVESGGGLVQPGGSLRLSCAFSGLSLSTSGKGVGWIRQAPGKGLEWLAHIWWDDDKRYNPALKSRLTISKDTSKNTVYLQMNSLRAEDTAVYYCARIELGRSYVMDYWGQGTLVTVSS
VL: B8 VL with Q24R, F73L, I83F, L104V
notes: Human IgG1

Kd [1]: 0.5 nM
fold improvement of affinity over the first humanized prototype [2]: 2 fold
Kd [3]: 3.2 nM
B10: humanized 9G7 best-fit antibody (antibody, human IgG1, kappa, V domains shown)
VH: B8 VH
VL: B8 VL with F36Y
notes: Human IgG1; also called 9G7 best-fit F36Y humanized variant
